In the nanobody polyreactivity screen of Harvey et al. (2022):

Assay: yeast display, Sf9 membrane polyspecificity reagent, FACS + sequencing; frameworks hold sequencing errors
In short: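 In a synthetic yeast display library (Saccharomyces cerevisiae BJ5465), nanobody expression was induced with galactose for 36–48 hours. FACS gates were set low and high (top ~1%) using anti-HA fluorescence for expression and streptavidin fluorescence for binding of the Sf9 membrane reagent. Each polyreactivity label is drawn from the gate of origin.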

Sequence	polyreactivity (PSR sort gate)
QVQLVESGGGLVQAGGSLRLSCAASGSTFVTNAMVWYRQAPGKEREFVAAIRWSAGNTYYADSVKGRFTISRDNAKNTVFLQMNSLKPEDTAVYYCAADIYEQRSTYYAEYYSWGQGTQVTVSS	low polyreactivity
QVQLVESGGGLVQAGGSLRLSCAASGSTFVTNGMGWYRQAPGKERELVAAISGNVGSTYYADSVKGRFTISRDNAKNTVYLQMNSLKPEDTAVYYCAARQYRPSDYDYWGQGTQVTVSS	low polyreactivity
QVQLVESGGGLVQAGGSLRLSCAASGSTFVTNVMGSYRQAPGKERELVAAISYSGGNTYYEDSVKGRFTISRDNSKNTVYLQRNSLNPEDTAVYYCDASYKQFKKMGYWGQGTQVTVSS	high polyreactivity
QVQLVESGGGLVQAGGSLRLSCAASGSTFVTYTMGWYRQAPGKERELVAAISWSGDTTYADSVKGRFTISRDNAKNTVYLQMNSLKPVDTAVYYCAADDDWSGVEFDYLGQGTQVTVSS	low polyreactivity
QVQLVESGGGLVQAGGSLRLSCAASGSTFVVNTMGRYRQAPGKERELVAAISTGSSTYADSVKGRFTISRDNAKNTVYLQMNSLKPEDTAVYYCNTAFPGKYDYWGQGTQVTVSS	low polyreactivity
QVQLVESGGGLVQAGGSLRLSCAASGSTFVVYAMGWYRQAPGKERELVAAIDLSVGDTYYADSVKGRFTISRDNAKNTVYLQMNSLKPEDTAVYYCAAEFYSYKYPDYDYWGQGTQVTVSS	low polyreactivity
QVQLVESGGGLVQAGGSLRLSCAASGSTFVWNAMGWYRQAPGKERELVASISSSGDRTYYADSVKGRFTISRDNAKNTVYLQMNSLKPEDTAVYYCAARYTRADYDYLGQGTQVTVSS	high polyreactivity
QVQLVESGGGLVQAGGSLRLSCAASGSTFVWYAMGWYRQAPGKEREFDATISWSDGSRYYADSVKGRFTISRDNAKNTVYLHMNSLKPEDPAVYYCASDVDRFFTYTYDYWGQGTQVTVSS	low polyreactivity
QVQLVESGGGLVQAGGSLRLSCAASGSTFVWYAMGWYRQAPGKERELVAVIDWSGGSTSYADSVKGRFTISRDNAKNTVYLQMNSLKPEDTAVYYCAADSGHYYGLYYWGQGTQVTVSS	low polyreactivity
QVQLVESGGGLVQAGGSLRLSCAASGSTFVYMGGYRQAPGKEREFVAITFSGGRTYADSVKGRFTISRDNAKNTVYLQMNSLKPEDTAVYYCNKGDDFYSTYSYDYWGQGTQVTVSS	low polyreactivity
QVQLVESGGGLVQAGGSLRLSCAASGSTFVYNAMGWYRQAPGKEREFVAVINWSGGRTYADSVKGRFTISRDNAKNTVYLQMISLKPEDTEVYYCIARRRTGYRPAMDYWGQGTEVTVSS	high polyreactivity
QVQLVESGGGLVQAGGSLRLSCAASGSTFVYNAMGWYRQAPGKERELVAAISRRGTSTYYADSVKGRFTISRDNAKNTVYLQMNSLKPEDTAVYYCAASQLSRSGQYRRDYWGQGTQVTVSS	high polyreactivity
QVQLVESGGGLVQAGGSLRLSCAASGSTFVYNAMGWYRQAPGKERELVAAITVIGGRTYYADSVKGRFTISRDNAKNTVYLQMISLKPEDTAVYYCNADATESIGYYDEYEYWGQGTQVTVSS	low polyreactivity
QVQLVESGGGLVQAGGSLRLSCAASGSTFVYSAMGWYRQAPGKERELVAAIRNGDGTNYADSVKGRFTISRDNAMNTVYLQMNSLKPEDTAVYYCAAPQGEYFYVYEFDYWGQGTQVTVSS	low polyreactivity
QVQLVESGGGLVQAGGSLRLSCAASGSTFVYYAMGWYRQAPGKERELVAAINRSGTRTYYADSVKGRFTISRDNAKNTVYLQMNSLKPEDTAVYYCAKAVQGKYGYWGQGTQVTVSS	high polyreactivity
QVQLVESGGGLVQAGGSLRLSCAASGSTFVYYAMGWYRQAPGKERELVAAISSGGNTKYADSVKGRFTISRDNAKNTVYLQMNSLKPEDTAVYYCARESQSYYDHDYWGQGTQVTVSS	low polyreactivity
QVQLVESGGGLVQAGGSLRLSCAASGSTFVYYAMGWYRQAPGKERELVAAITGSVDSTYYADSVKGRFTISRDNAKNTVYLQMNSLKPEDTAVYYCAADTYSTYWGQGTQVTVSS	low polyreactivity
QVQLVESGGGLVQAGGSLRLSCAASGSTFVYYDMGWYRQAPGKERELVAAISRGGGSTYYADSVKGRFTISRDNAKNTVYLQMNSLKPEDTAVYYCAAVAGYRYYWGQGTQVTVSS	high polyreactivity
QVQLVESGGGLVQAGGSLRLSCAASGSTFVYYTMGWYRQAPGKERELVATISSRGGSTYYADSVKGRFTISRDNAKNTVYLQMNSLKPEDTAVYYCAKRGPFYGNYDYWGQGTQVTVSS	high polyreactivity
QVQLVESGGGLVQAGGSLRLSCAASGSTFWANAMGWSRPAPGKERELVAAITSTGITYYADSVKGRFTISRDNAKNTVYLQMNSLIPEDTAVYYCAAEPPDEFWTDLLVDYFLGYEYWGPGTQVTVSS	low polyreactivity
QVQLVESGGGLVQAGGSLRLSCAASGSTFWATAMGWYRQAPGKERELVAAITTSGASTNYADSVKGRFTISRDNAKNTVYLQMNSLKPEDTAVYYCAADYDSYYWYNYWGQGTQVTVSS	low polyreactivity
QVQLVESGGGLVQAGGSLRLSCAASGSTFWEYAMGWYRQAPGKEREFVAAISYRGGGTYYADSVKGRFTISRDNAKNTVYLQKNSLKPEDTAVYYCAARRWRGRYWGDYWGQGTQVTVSS	high polyreactivity
